The source of these data is ChEMBL document CHEMBL1138116, “Synthesis and reactivity with beta-lactamases of a monobactam bearing a retro-amide side chain” (Bioorg Med Chem Lett, 2006).

Substrate in series [1]: O=C(Cc1ccccc1)N[C@H]1CN(S(=O)(=O)O)C1=O
The series is described as follows: (§1) Binding affinity to class D beta lactamase OXA1 of Escherichia coli.

Substrate in series [2]: O=C(NCc1ccccc1)C1CN(S(=O)(=O)O)C1=O
The series is described as §1.

Substrate in series [3]: O=C(Cc1ccccc1)N[C@H]1CN(S(=O)(=O)O)C1=O
The series can be described thus: (§2) Binding affinity to class C beta lactamase of Enterobacter cloacae P99.

Substrate in series [4]: O=C(NCc1ccccc1)C1CN(S(=O)(=O)O)C1=O
Described as §2.

Substrate in series [5]: O=C(Cc1ccccc1)N[C@H]1CN(S(=O)(=O)O)C1=O
The series is described as follows: (§3) Binding affinity to TEM class A beta lactamase from the TEM2 plasmid. To be noted: Escherichia coli.

Substrate in series [6]: O=C(NCc1ccccc1)C1CN(S(=O)(=O)O)C1=O
The description is as §3. As to conditions: Escherichia coli.

Substrate in series [7]: O=C(Cc1ccccc1)N[C@H]1CN(S(=O)(=O)O)C1=O
The series can be described thus: (§4) Binding affinity to class A beta lactamase of Staphylococcus aureus PC1.

Substrate in series [8]: O=C(NCc1ccccc1)C1CN(S(=O)(=O)O)C1=O
The description is as §4.

B1: Beta-lactamase OXA-1 (Escherichia coli), P13661 (protein)
chain: MKNTIHINFAIFLIIANIIYSSASASTDISTVASPLFEGTEGCFLLYDASTNAEIAQFNKAKCATQMAPDSTFKIALSLMAFDAEIIDQKTIFKWDKTPKGMEIWNSNHTPKTWMQFSVVWVSQEITQKIGLNKIKNYLKDFDYGNQDFSGDKERNNGLTEAWLESSLKISPEEQIQFLRKIINHNLPVKNSAIENTIENMYLQDLDNSTKLYGKTGAGFTANRTLQNGWFEGFIISKSGHKYVFVSALTGNLGSNLTSSIKAKKNAITILNTLNL
One may read the Km as the concentration of substrate that gives half-maximal velocity. As to B1, the Km in series [1] worked out at 29 µM; in series [2], 2300 µM.

B2: Beta-lactamase class C (Enterobacter cloacae), Q59401 (protein)
chain: MMKKSLCCALLLGISCSALATPVSEKQLAEVVANTVTPLMKAQSVPGMAVAVIYQGKPHYYTFGKADIAANKPVTPQTLFELGSISKTFTGVLGGDAIARGEISLDDPVTRYWPQLTGKQWQGIRMLDLATYTAGGLPLQVPDEVTDNASLLRFYQNWQPQWKPGTTRLYANASIGLFGALAVKPSGMPYEQAMTTRVLKPLKLDHTWINVPKAEEAHYAWGYRDGKAVRAVRVSPGMLDAQAYGVKTNVQDMANWVMANMAPENVADASLKQGIALAQSRYWRIGSMYQGLGWEMLNWPVEANTVVEGSDSKVALAPLPVAEVNPPAPPVKASWVHKTGSTGGFGSYVAFIPEKQIGIVMLANTSYPNPARVEAAYHILEALQ
As to B2, the Km in series [3] was 1000 µM; in series [4], 75 µM.

B3: Beta-lactamase TEM (Escherichia coli), P62593 (protein)
chain: MSIQHFRVALIPFFAAFCLPVFAHPETLVKVKDAEDQLGARVGYIELDLNSGKILESFRPEERFPMMSTFKVLLCGAVLSRVDAGQEQLGRRIHYSQNDLVEYSPVTEKHLTDGMTVRELCSAAITMSDNTAANLLLTTIGGPKELTAFLHNMGDHVTRLDRWEPELNEAIPNDERDTTMPAAMATTLRKLLTGELLTLASRQQLIDWMEADKVAGPLLRSALPAGWFIADKSGAGERGSRGIIAALGPDGKPSRIVVIYTTGSQATMDERNRQIAEIGASLIKHW
Take B3: the Km in series [5] worked out at 6800 µM; in series [6], 2500 µM.

B4: Beta-lactamase (Staphylococcus aureus), P00807 (protein)
chain: MKKLIFLIVIALVLSACNSNSSHAKELNDLEKKYNAHIGVYALDTKSGKEVKFNSDKRFAYASTSKAINSAILLEQVPYNKLNKKVHINKDDIVAYSPILEKYVGKDITLKALIEASMTYSDNTANNKIIKEIGGIKKVKQRLKELGDKVTNPVRYEIELNYYSPKSKKDTSTPAAFGKTLNKLIANGKLSKENKKFLLDLMLNNKSGDTLIKDGVPKDYKVADKSGQAITYASRNDVAFVYPKGQSEPIVLVIFTNKDNKSDKPNDKLISETAKSVMKEF
With B4, the Michaelis constant (Km) in series [7] was 70 µM; in series [8], 300 µM.
